Measurements published in PMC6547884, “Molecular Basis for poly(A) RNP Architecture and Recognition by the Pan2-Pan3 Deadenylase” (Cell, 2019).
Each block holds one binder with its values, some of them ahead of it.

How the values were obtained:
[1] = target: T1, Ccr4(110-837)-Caf1(146-433) complex (S. cerevisiae, UniProt P31384 110-837; P39008 146-433); test: SEC; reconstitution: purified Not1(754-1000) mixed with Ccr4(110-837)-Caf1(146-433) in equimolar amounts; Superdex200 16/60, 20 mM Tris pH 7.5, 250 mM NaCl, 1 mM DTT; conditions: both partners purified
T1 construct: The complex is His-tagged; also called core yeast Ccr4-Caf1 nucleases; source: Trichoplusia ni Hi5 insect cells (pFastBac DUAL), purified (IMAC, heparin, SEC)
T1 sequence (looked up) 1: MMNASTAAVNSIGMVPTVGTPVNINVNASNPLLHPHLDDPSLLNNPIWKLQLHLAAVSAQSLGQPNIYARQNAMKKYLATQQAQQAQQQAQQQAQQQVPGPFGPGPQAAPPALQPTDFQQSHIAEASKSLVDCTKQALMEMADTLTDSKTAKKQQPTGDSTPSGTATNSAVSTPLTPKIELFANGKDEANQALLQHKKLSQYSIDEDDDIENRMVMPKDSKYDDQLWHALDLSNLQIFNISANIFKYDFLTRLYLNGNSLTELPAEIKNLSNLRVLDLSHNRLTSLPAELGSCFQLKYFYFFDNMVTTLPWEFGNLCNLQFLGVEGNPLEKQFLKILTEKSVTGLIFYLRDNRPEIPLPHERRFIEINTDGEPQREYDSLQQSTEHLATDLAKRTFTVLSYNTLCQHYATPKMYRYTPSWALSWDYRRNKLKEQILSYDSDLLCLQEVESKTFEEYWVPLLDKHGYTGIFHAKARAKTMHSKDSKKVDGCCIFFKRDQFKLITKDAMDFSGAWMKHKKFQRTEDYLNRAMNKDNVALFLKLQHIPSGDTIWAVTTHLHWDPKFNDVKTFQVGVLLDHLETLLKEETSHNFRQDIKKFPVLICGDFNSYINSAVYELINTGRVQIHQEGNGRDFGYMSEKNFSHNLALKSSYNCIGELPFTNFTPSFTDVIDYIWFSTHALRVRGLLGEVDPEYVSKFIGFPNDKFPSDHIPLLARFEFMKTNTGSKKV
T1 sequence (looked up) 2: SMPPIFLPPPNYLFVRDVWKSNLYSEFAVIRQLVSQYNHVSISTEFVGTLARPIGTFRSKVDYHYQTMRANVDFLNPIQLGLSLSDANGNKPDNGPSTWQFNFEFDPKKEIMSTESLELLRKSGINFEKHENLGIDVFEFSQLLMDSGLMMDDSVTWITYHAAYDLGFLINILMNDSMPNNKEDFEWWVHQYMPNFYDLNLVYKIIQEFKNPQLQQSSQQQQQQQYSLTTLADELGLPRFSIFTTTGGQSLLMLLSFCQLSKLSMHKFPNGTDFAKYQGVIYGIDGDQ

[2] = target: the molecule itself; test: cryo-EM structure; Pan2cat-Pan3 with 90A RNA and three Pab1, reconstituted as for SEC and purified on Superose 6; overall nominal resolution 4.8 Å, focused maps 4.7 and 4.5 Å
[3] = target: the molecule itself; test: cryo-EM structure; substrate-free Pan2cat-Pan3Δ(1-162); Volta phase plate; nominal global resolution about 4.5 Å

binding result [1]: binds
B1: Not1(754-1000) (domain or fragment, S. cerevisiae, UniProt P25655 754-1000, looked up)
chain: RSRPVQEMIPLKFFAVDEVSCQINQEGAPKDVVEKVLFVLNNVTLANLNNKVDELKKSLTPNYFSWFSTYLVTQRAKTEPNYHDLYSKVIVAMGSGLLHQFMVNVTLRQLFVLLSTKDEQAIDKKHLKNLASWLGCITLALNKPIKHKNIAFREMLIEAYKENRLEIVVPFVTKILQRASESKIFKPPNPWTVGILKLLIELNEKANWKLSLTFEVEVLLKSFNLTTKSLKPSNFINTPEVIETLSG
notes: source: E. coli BL21 DE3, purified (IMAC, tag cleavage, heparin, SEC); not shown: SUMO, N-terminal, cleaved; His tag, N-terminal, cleaved

B2: Pan3 (S. cerevisiae, C-terminal deca-histidine tag) (natural protein, UniProt P36102 1-679, looked up)
chain: MDKINPDWAKDIPCRNITIYGYCKKEKEGCPFKHSDNTTATTINDVPPPIDVGEATTPTMTSVPKFNAKVSASFTPMTVGSDSLTTVTNTTSAATNATGNIAMAATSATASTVNPMINPIVNSSLVNNNNNNSNISISIPTTASSSNYDPFNAPIFTPSSTSSIHTNANAHSFPFPSIANSGGININATDDNSNNMSMANNVPPPMQPPPIESSNLKYPRIYPPPHSLLQYHLYAPEQPSSLKSLLKPNERSADQLFIPNNIREDLTKKNLSILQVFPSSGKVIPSIVQDYFNLVPLNFNNNDFLNKTTLFKVFSNYDGKAYVLKRLPNIDKSMNPNKISKIYQIWSKINCTNLIKFRDIFQTTKFGDLSICLVFDYYPNSLSLYDYHFVNFPKFPITNNYLWIYLVQLTNVINSIHSQNLSIGNTLNWRKVLITGDPGRIKLSHCNFMDLLFNDDTDTVVSSGGSTIEGQQQLDYKYLGELLFNLSINIENSNNNTAPKEYRLEEITPQSIDDMRQIDDKFKDVLKYLISDNGDSKKSIHDLTSHFYDKMFMVLESSQTYTEYMESVLSRELENGRLFRLVNKLNCIFGRIESRIDINWSESGTKFPIILFYDYVFHQVDSNGKPIMDLTHVLRCLNKLDAGIQEKLMLVTPDELNCIIISYKELKDLIESTFRSITQ
notes: Pan3, S. cerevisiae; The Pan3 chain of m1, written alone for the pairs that touch in the structure and for co-purification; also called Pan3straight; Pan3bent; source: Trichoplusia ni Hi5 insect cells, co-expressed with Pan2, purified as a complex; not shown: His10, C-terminal, kept
stoichiometry N [2]: 2

B3: Pan3Δ(1-162) (domain or fragment, S. cerevisiae, UniProt P36102 163-679, looked up)
chain: SIHTNANAHSFPFPSIANSGGININATDDNSNNMSMANNVPPPMQPPPIESSNLKYPRIYPPPHSLLQYHLYAPEQPSSLKSLLKPNERSADQLFIPNNIREDLTKKNLSILQVFPSSGKVIPSIVQDYFNLVPLNFNNNDFLNKTTLFKVFSNYDGKAYVLKRLPNIDKSMNPNKISKIYQIWSKINCTNLIKFRDIFQTTKFGDLSICLVFDYYPNSLSLYDYHFVNFPKFPITNNYLWIYLVQLTNVINSIHSQNLSIGNTLNWRKVLITGDPGRIKLSHCNFMDLLFNDDTDTVVSSGGSTIEGQQQLDYKYLGELLFNLSINIENSNNNTAPKEYRLEEITPQSIDDMRQIDDKFKDVLKYLISDNGDSKKSIHDLTSHFYDKMFMVLESSQTYTEYMESVLSRELENGRLFRLVNKLNCIFGRIESRIDINWSESGTKFPIILFYDYVFHQVDSNGKPIMDLTHVLRCLNKLDAGIQEKLMLVTPDELNCIIISYKELKDLIESTFRSITQ
notes: Pan3, S. cerevisiae, lacking residues 1-162; Pan3 chain of the substrate-free Pan2cat-Pan3Δ(1-162) cryo-EM sample; also called Pan3ΔN; source: Trichoplusia ni Hi5 insect cells, co-expressed with Pan2cat, purified as a complex
stoichiometry N [3]: 2
